Test results reported in IntAct's records for PubMed 12679340.

B1: Ornithine carbamoyltransferase (Saccharomyces cerevisiae), P05150 (parent)
chain: MSTTASTPSSLRHLISIKDLSDEEFRILVQRAQHFKNVFKANKTNDFQSNHLKLLGRTIALIFTKRSTRTRISTEGAATFFGAQPMFLGKEDIQLGVNESFYDTTKVVSSMVSCIFARVNKHEDILAFCKDSSVPIINSLCDKFHPLQAICDLLTIIENFNISLDEVNKGINSKLKMAWIGDANNVINDMCIACLKFGISVSISTPPGIEMDSDIVDEAKKVAERNGATFELTHDSLKASTNANILVTDTFVSMGEEFAKQAKLKQFKGFQINQELVSVADPNYKFMHCLPRHQEEVSDDVFYGEHSIVFEEAENRLYAAMSAIDIFVNNKGNFKDLK

Variants of: B1
Settings: with argi_yeast CAR1, P00812
Chain of argi_yeast CAR1, P00812 (P00812 whole entry): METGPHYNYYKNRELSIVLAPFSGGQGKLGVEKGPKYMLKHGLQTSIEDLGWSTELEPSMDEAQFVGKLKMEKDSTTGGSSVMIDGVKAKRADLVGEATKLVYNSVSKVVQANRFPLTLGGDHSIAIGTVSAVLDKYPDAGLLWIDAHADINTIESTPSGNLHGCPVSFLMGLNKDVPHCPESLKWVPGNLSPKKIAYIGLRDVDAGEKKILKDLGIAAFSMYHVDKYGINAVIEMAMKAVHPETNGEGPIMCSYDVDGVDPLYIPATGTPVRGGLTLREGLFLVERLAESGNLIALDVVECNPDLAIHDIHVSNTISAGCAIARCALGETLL

Row | effect of a mutation on the interaction | Variant
1 | decreasing interaction | D182N
